# Assay results from publication PMC10683372.
# Values joined by “and” are separate entries in the source; they are usually repeats but may differ in a detail not shown here. Identical values can stand only once. Bridge positions count the residues as written; N and C are the ends.
# Tests used:
# α‐thrombin (αT) = assay: enzyme inhibition (amidolytic activity on S2238)
# [1] = target: recombinant wild type α‐thrombin; assay: other fluorescence titration; intrinsic fluorescence of thrombin (50 nM) at 334 nm recorded at increasing peptide concentration; TBS pH 7.4, 0.15 M NaCl, 0.1% PEG-8000, 25°C; one-site model
# [2] = target: [F]‐Haem(45–57), N^α‐fluoresceinated analogue of the peptide 45–57 (Haemadipsa sylvestris); assay: other fluorescence titration; thrombin (S195A by the methods) or its hirudin complex added to the fluoresceinated peptide (60 nM); excitation 492 nm, emission 516 nm; TBS, 25°C
# [3] = target: recombinant wild type α‐thrombin; assay: enzyme inhibition (amidolytic activity on S2238)
substance,measurement,setting,value
"H-IRFGMGKVPCPDGEVGYTCDCGEKICLYGQSCNDGQCSGDPKPSSEFEEFEIDEEEK-OH (disulfide 10-19, 21-32, 26-37)",T m higher than hirudin,,22 °C
Haem(1–10) wild type (peptide),Ki,α‐thrombin (αT),1900 nM
Haem(45–57) (peptide),Kd,[1],1600 nM
catalytically inactive αT S195A mutant (enzyme),Kd,[2],350 nM
full‐length haemadin Met5nLeu analogue (natural protein),fold increase of KI(fast) against wild-type haemadin,α‐thrombin (αT),2 fold
same,fold increase of KI(slow) against wild-type haemadin,α‐thrombin (αT),2 fold
full‐length wild‐type haemadin 1–57 (natural protein),Ki,[3],0.000214 nM
same,koff,[3],4.83e-05 s⁻¹
same,kon,[3],2.25e+08 M⁻¹ s⁻¹
same,Ki,α‐thrombin (αT),0.00023 nM and 0.0015 nM
preformed S195A‐hirudin complex,Kd,[2],12800 nM
